Experimental data: IntAct's records for PubMed 19171758

B1: BAR/IMD domain-containing adapter protein 2 (Homo sapiens), Q9UQB8-4 (parent)
chain: MSLSRSEEMHRLTENVYKTIMEQFNPSLRNFIAMGKNYEKALAGVTYAAKGYFDALVKMGELASESQGSKELGDVLFQMAEVHRQIQNQLEEMLKSFHNELLTQLEQKVELDSRYLSAALKKYQTEQRSKGDALDKCQAELKKLRKKSQGSKNPQKYSDKELQYIDAISNKQGELENYVSDGYKTALTEERRRFCFLVEKQCAVAKNSAAYHSKGKELLAQKLPLWQQACADPSKIPERAVQLMQQVASNGATLPSALSASKSNLVISDPIPGAKPLPVPPELAPFVGRMSAQESTPIMNGVTGPDGEDYSPWADRKAAQPKSLSPPQSQSKLSDSYSNTLPVRKSVTPKNSYATTENKTLPRSSSMAAGLERNGRMRVKAIFSHAAGDNSTLLSFKEGDLITLLVPEARDGWHYGESEKTKMRGWFPFSYTRVLDSDGSDRLHMSLQQGKSSSTGNLLDKDDLAIPPPDYGAASRAFPAQTASGFKQRPYSVAVPAFSQGLDDYGARSMSSGSGTLVSTV

Variants of: B1
Settings: with rac1_human RAC1, P63000

Variant | effect of a mutation on the interaction
R11E;K143E | disrupting interaction
